Results from the DeepSol protein solubility set.

assay: soluble on expression in E. coli; label from the status in PepcDB or PDB records

| Sequence | soluble on expression in E. coli |
| --- | --- |
| MGSDKIHHHHHHMTQSDFFSLDGISKRFGVVQALDNVSIAFRPGEVLALVGENGAGKSTMMRILEGVSGPDTGTVRHGSTPIVFGEPRDSHRAGIRVIHQEPEIVPNLTVAENIFVGELPRLAGVLLDWRKLEEQTDRVLATFGMQQDMRPRQLCGTLGPAQRQMIEIMRAIRAGGRLIAFDEPTSSLTDDEARRLFSVVRRLREKGTSIIYISHRLNEIIDLADRIVVLRDGRLVDDSPAAGASEQTIAKLMVGRNIDDLFTRETWRSGEQLLDVAGLTTDRVNDVSLRVRRGEVLGIAGLMGAGRSELAKAIVGYDRRIAGTIAMNGVPVLPNSPHAAIVAGIGFAPEDRKHEALLLFRSILDNAALCVPDKTSSFGFFNRRKAMEIVSPLAAKMSIKAPNLDEQVSKLSGGNQQKVVLARWLARQPMLLILDEPTRGIDIGAKAEIYRLIDELAASGIGIILISSEMPELIGLADRVLVMAGGRITAELARPDIDEATILKHAMPQSASSPGDYIQ | not soluble |
| VFLGKTSPDFNLGWSNSLSYKGFGLSFLINGRFGGVVTSSTQAILDRFGVSKASAEARDAGGVLLPGQGRVDAQSYYQLIGTGDYTTSGYYVYSATNIRLQELTLSYRFPDLWFKNVLKDVTLSFIANNPWMLYSKAPHDPELTPSVGTYGQGNDYFMQPSVRSFGFGIKFKL | not soluble |
| MGSDKIHHHHHHMSDKLSQEQIDALLSQMSEGKVVDESTEIGDFGRFHPYDFHKPEKFGAEHLESLKTIASAFTKKSMEFVSQRIRIPIHTEATLADQVSFASGYIETMPNDSYIFCIIDLGNPELGQIIIELDLAYIIYIHECLSGGNPKRKLSERRLLSVFEELTLKSILEKFCEALKDSFKSVHPISPEIVNIETNPALLRVTSPNDMMALVSVDIKSEFWISTMRIGVPFFSVEEIMNKLENVVEYTFDKRRNFDAEVEQELHQVEKEARIRVGEIKTTWKELNMLEVGDVLLTETHIRDTLKGYVTEKWKFECYMGKSGNQKAVKFMRHTGRTEQER | not soluble |
| MLEEVERWLDARSWPAADRPVQHLLSAKHATGQSVSVVLPALDEEATVGDIVSVIRRELVLGVPLVDEIVVVDSGSSDRTSEVAAAAGARVVHRDAILPRIPAVPGKGEVLWRSLLVTGGDIVCFVDADLREFSADFVSGIVGPLLTDPDVHLVKAMYDRPLAGAAGQGGRVTELMARPLLNMHWPQLAGFVQPLGGEYAARRSLLERLPFPVGYGVELGMLVDALHLVGLDALAQVDVGVRVHRHQDGRALGRMAAAIYRTAQLRLARGHLVRPALTQFERGVDGFEPRTYAVDTEERPPMTEIAEYAARKVALEHHHHHH | soluble |
| DAPAVGKDLTQAAENIPPAFHNAPRQGELPALNYVNQPPMVPHSVANYQVTKNVNQCLNCHSPENSRLSGATRISPTHFMDRDGKVGSSSSPRRYFCLQCHVSQANVDPIVPNDFKPMKGYGN | soluble |
| MGSDKIHHHHHHGKGQQPSEENEDPKAKEILQGIWLDDETETPLMRIIGDTIYYSDAQSAPVYFKILKDTLYTYGKDVTHYQIDKQSEYSFWFHSLADNIIKLHKSEDPNDTLAFSFKSVEIIPTYTEVTKKDSVVMFDGVRYRAYVYINPSQMKVVKTTYSEDGISMDNIYYDNVMHICVYEGKKSLYAKDITKQMFVDVIPTDFLQQAILSDMNFIGIDRKGYHYQALVCIPESPVCNLVNLTISFDGKLNITAAKYK | not soluble |
| MAHHHHHHMRFFKSDGTPYNSDMTDTLHGSEYVHRGGVEAIVEGVAAGQYAEHKPRAIMFVNKRPVEIIPQEENLLEVLEREGIRVPKFCYHPILSVAGNCRMCLVQVDGTQNLVVSCATVALPGMSIITDSRLVRDAREGNVELILINHPNDCPICEQATNCDLQNISMNYGTDIPRYKEDKRAVQDFYFDPQTRVVLNRCIHCTRCVRFLNEHAQDFNLGMIGRGGLSEISTFLDELEVKTDNNMPVSQLCPVGKLYLGDADENNAVADELDASEQAYAVATS | soluble |
| MLSLNLPVFDTKINVRNGKNVIFDVIRKRYVALTPEEWVRQHFVHFLIAHKGYPNALLANEVMVKLNGTTKRCDTVLYRRDLSARMIVEYKAPHIEITQAVFDQITRYNMVLKVDYLIVSNGMQHYCCRMDYAHQSYTFLQDIPDYNAL | not soluble |
| LEGTAGTITSNEWSSPTSPEGSTASGGSQALDKPIDNDAEGVWSPDIEQSFQEALAIYPPCGRRKIILSDEGKMYGRNELIARYIKLRTGKTRTRKQVSSHIQVLARRKAREIQAKLKDQAAKDKALQSMAAMSSAQIISATAFHSSMALARGPGRPAVSGFWQGALPGQAGTSHDVKPFSQQTYAVQPPLPLPGFESPAGPAPSPSAPPAPPWQGRSVASSKLWMLEFSAFLEQQQDPDTYNKHLFVHIGQSSPSYSDPYLEAVDIRQIYDKFPEKKGGLKDLFERGPSNAFFLVKFWADLNTNIEDEGSSFYGVSSQYESPENMIITCSTKVCSFGKQVVEKVETEYARYENGHYSYRIHRSPLCEYMINFIHKLKHLPEKYMMNSVLENFTILQVVTNRDTQETLLCIAYVFEVSASEHGAQHHIYRLVKE | soluble |
| MSYYHHHHHHDYDIPTTENLYFQGAMDPEFRVINLAYDDNGTGDPVVFIAGRGGAGRTWHPHQVPAFLAAGYRCITFDNRGIGATENAEGFTTQTMVADTAALIETLDIAPARVVGVSMGAFIAQELMVVAPELVSSAVLMATRGRLDRARQFFNKAEAELYDSGVQLPPTYDARARLLENFSRKTLNDDVAVGDWIAMFSMWPIKSTPGLRCQLDCAPQTNRLPAYRNIAAPVLVIGFADDVVTPPYLGREVADALPNGRYLQIPDAGHLGFFERPEAVNTAMLKFFASVKA | soluble |
| SMEVFQNHFEPGVYVCAKCGYELFSSRSKYAHSSPWPAFTETIHADSVAKRPEHNRSEALKVSCGKCGNGLGHEFLNDGPKPGQSRFSIFSSSLKFVPKGKETSA | soluble |
